In article PMC7615710, “ASPP2 binds to hepatitis C virus NS5A protein via an SH3 domain/PxxP motif-mediated interaction and potentiates infection” (The Journal of general virology, 2023) one finds Kd data, which are given here for 9 molecules.

By Kd is commonly meant the free concentration of one partner at which half of the binding sites on the other are occupied at equilibrium, for simple one-to-one binding. Lower therefore signals higher affinity.

First the molecules themselves.
B1: HCV [4a.ED43] NS5A PRR peptide (peptide)
peptide: WLPPAKQPPVPSPRRKRTVQL
notes: source: synthetic peptide, custom made (TUCF)
B2: HCV [2a.JFH-1] NS5A PRR peptide (peptide)
peptide: WLPPPKKAPTPPPRRRRTVGL
notes: also called NS5A (2a); NS5A PRR peptide (JFH-1); source: synthetic peptide, custom made (TUCF)
B3: HCV [1b.Con1] NS5A PRR peptide (peptide)
peptide: WLPPAKAPPIPPPRRKRTVVL
notes: as for B1
B4: LASP1 SH3 domain (205-261) (domain or fragment)
chain: KRYRAVYDYSAADEDEVSFQDGDTIVNVQQIDDGWMYGTVERTGDTGMLPANYVEAI
B5: Grb2 SH3 domain (1-58) (domain or fragment)
chain: MEAIAKYDFKATADDELSFKRGDILKVLNEECDQNWYKAELNGKDGFIPKNYIEMKPH
B6: ASPP1 C-terminal domain (887-1090) (domain or fragment)
chain: NPLALLLDASLEGEFDLVQRIIYEVEDPSKPNDEGITPLHNAVCAGHHHIVKFLLDFGVNVNAADSDGWTPLHCAASCNSVHLCKQLVESGAAIFASTISDIETAADKCEEMEEGYIQCSQFLYGVQEKLGVMNKGVAYALWDYEAQNSDELSFHEGDALTILRRKDESETEWWWARLGDREGYVPKNLLGLYPRIKPRQRTLA
notes: also called ASPP1 CTD
B7: Fyn SH3 domain (85-142) (domain or fragment)
chain: not shown
B8: Lyn SH3 domain (65-122) (domain or fragment)
chain: GDIVVALYPYDGIHPDDLSFKKGEKMKVLEEHGEWWKAKSLLTKKEGFIPSNYVAKLN
B9: ASPP2 C-terminal domain (925-1128) (domain or fragment)
chain: NPLALLLDSSLEGEFDLVQRIIYEVDDPSLPNDEGITALHNAVCAGHTEIVKFLVQFGVNVNAADSDGWTPLHCAASCNNVQVCKFLVESGAAVFAMTYSDMQTAADKCEEMEEGYTQCSQFLYGVQEKMGIMNKGVIYALWDYEPQNDDELPMKEGDCMTIIHREDEDEIEWWWARLNDKEGYVPRNLLGLYPRIKPRQRSLA
notes: also called ASPP2 CTD

One assay has as its target B9. Description: ITC; 450 or 300 uM NS5A PRR peptide (syringe) titrated to 30 uM ASPP CTD or SH3 domain (cell), 12 °C, 25 mM HEPES pH 7.5, 150 mM NaCl, 500 uM TCEP; 25 steps of 10 ul; AB hetero association model (SEDPHAT). The note with it: both partners purified. A general note: ITC needs no label: the signal is the heat of the interaction.
With B1, the Kd is 0.741 µM.

Turning to B2, the Kd was 0.0424 µM.

The molecule B3 registered a Kd of 0.0758 µM.

A further assay addresses B6. Described as above. The note with it: both partners purified.
Molecule B1 returned a Kd of 42.8 µM. This counts as double-digit micromolar.

For the molecule B2, the Kd turned out to be 3.78 µM.

Take B3: the dissociation constant Kd was found to be 6.7 µM. Compared with the last molecule, the Kd is about 1.8-fold higher.

The target of a further assay is T1, HCV [1a.1] NS5A PRR peptide (Hepatitis C virus genotype 1a (strain 1)).
T1 construct: source: synthetic peptide, custom made (TUCF)
The description is as above. The conditions noted are these: both partners purified.
The molecule B4 showed a dissociation constant (Kd) of 2.3 µM.

B5 came in with a Kd of 7.96 µM.

B6 registered a Kd of 9.27 µM. The Kd values of the last two molecules are within 1.5-fold of each other.

Consider B7, for which the affinity, expressed as Kd, was 5.89 µM.

For B8, binding was put at a Kd of 5.1 µM.

B9 came in with an equilibrium dissociation constant (Kd) of 0.234 µM.
